Experimental data taken from paper PMC11602438.

Key:
[1] = molecular target: T1, YggS (E. coli PLP-BP), wild type (Escherichia coli) (UniProt P67080); assay: EMSA; details: REMSA with fixed RNA: 10 mM HEPES pH 7.3, 10 mM KCl, 1 mM MgCl2, 1 mM DTT, 5% glycerol, RT 30 min; 5% native PAGE, 0.5x TBE (fixed-protein REMSA: 20 mM HEPES …)
T1 sequence: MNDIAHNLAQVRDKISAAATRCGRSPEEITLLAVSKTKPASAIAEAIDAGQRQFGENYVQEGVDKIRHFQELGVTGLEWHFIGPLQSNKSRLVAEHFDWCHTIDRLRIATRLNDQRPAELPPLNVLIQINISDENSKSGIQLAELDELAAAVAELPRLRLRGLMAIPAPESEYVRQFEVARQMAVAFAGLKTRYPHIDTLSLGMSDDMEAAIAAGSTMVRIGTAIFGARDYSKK

[2] = tested on: YggS (E. coli PLP-BP), wild type (Escherichia coli); assay: EMSA; details: apo-form (no PLP); REMSA with fixed RNA: 10 mM HEPES pH 7.3, 10 mM KCl, 1 mM MgCl2, 1 mM DTT, 5% glycerol, RT 30 min; 5% native PAGE, 0.5x TBE (fixed-protein REMSA: 20 mM HEPES …)

Substance | Kd [1] | Kd [2]
GGGUCGCGUGGAAGCCCUGCCUGGGGUUGAAGCGUUAAAACUUAAUCAGGCUAGUUUGUUAGUGGCGUGUCCGUCCGCAGCUGGCAAGCGAAUGUAAAGACUGACUAAGCAUGUAGUACCGAGG [SsrA RNA fragment (198-318)] | 2.8 µM | –
RnpB RNA fragment (210-357) | – | 3.4 µM
GGGUGGUAACAGUCCGUGGCACGGUAAACUCCACCCGGAGCAAGGCCAAAUAGGGGUUCAUAAGGUACGGCCCGUACUGAACCCGGGUAGGCUGCUUGAGCCAGUGAGCGAUUGCUGGCCUAGAUGAAUGACUGUCCACGACAGAACCCGG [RnpB RNA fragment (210-357)] | 3.4 µM | –
SsrA RNA fragment (198-318) | – | 2.8 µM
